Target: unmodified guanylate-binding protein 1 (hGBP1) (human) (UniProt P32455)
Experiment: concentration-dependent GTPase activity

For “unmodified guanylate-binding protein 1 (hGBP1) (from UniProt P32455 1-592) (enzyme)”, which Kd is on record?
The Kd was 4 µM.

From paper PMC2903825
